For one data set, the system named is NIH 3T3 fibroblasts. Description: Cell proliferation (mitogenic activity) assay. The conditions noted are these: predicted from data on other Δ120-122 mutants. Format: cell-based. The method, then:
NIH 3T3 fibroblasts were initially plated in Dulbecco's modified Eagle's medium (DMEM) (American Type Culture Collection, Manassas Va.) supplemented with 10% (v/v) newborn calf serum (NCS) (Sigma, St. Louis Mo.), 100 units of penicillin, 100 μg streptomycin, 0.25 μg Fungizone™ and 0.01 mg/ml gentamicin (Gibco, Carlsbad Calif.) (“serum-rich” medium) in T75 tissue culture flasks (Fisher, Pittsburgh Pa.). The cultures were incubated at 37° C. and all cell growth was performed with 5% CO2 supplementation. At approximately 80% cell confluence, the cells were washed with 5 ml cold 0.14M NaCl, 5.1 mM KCl, 0.7 mM Na2HPO4 and 24.8 mM Trizma® base, pH 7.4 (TBS) and subsequently treated with 5 ml of a 0.025% trypsin solution (Invitrogen Corp., Carlsbad Calif.). Cell synchronization was initiated by serum starvation in DMEM with 0.5% NCS, 100 units of penicillin, 100 μg streptomycin, 0.25 μg Fungizone™ and 0.01 mg/ml gentamicin (“starvation” medium). The cells were seeded in T25 tissue culture flasks (Fisher, Pittsburgh, Pa.) at a cell density of 3.0×10^4 cells/cm^2 (representing ˜20% confluence). Duplicate flasks were used for each protein concentration. Cultures were incubated for 48 hours at 37° C., the medium was then decanted and replaced with fresh medium supplemented with the appropriate concentration of FGF-1 polypeptide, and incubated for an additional 48 hours. After this incubation, the medium was decanted and the cells were washed with 1 ml cold TBS pH 7.4. 1 ml of 0.025% trypsin was then added to release the cells from the flask surface, and 2 ml of serum-rich medium were added to dilute and inhibit the trypsin. The cells were counted using a hemocytometer (Hausser Scientific Partnership, Horsham Pa.). Experiments were performed in quadruplicate and the cell densities were averaged. The relationship between the cell number and log concentration of added growth factor was fit to a sigmoidal function.
Mitogenic activity towards NIH 3T3 fibroblasts was determined for WT*, SYM5, SYM5Δ104-106, SYM5Δ120-122, and SYM6ΔΔ mutants. […] The NIH 3T3 fibroblast proliferative activity of WT* FGF-1 yielded an effective concentration for 50% maximal stimulation (EC50) of 60 ng/ml (FIG. 3).

Data set [1] is described as follows: Heparin Sepharose affinity chromatography / heparin-binding affinity. The conditions noted are these: predicted from data on other Δ120-122 mutants. The text has this: All studies herein disclosed utilized a synthetic gene for the 140 amino acid form of human FGF-1 with the addition of an amino-terminal six residue “His-tag” to facilitate purification using nickel nitrilotriacetic acid (Ni-NTA) affinity resin (QIAGEN, Valencia Calif.). The QuikChange® site-directed mutagenesis protocol (Stratagene, La Jolla Calif.) was used to introduce mutations, individually or in combination, using mutagenic oligonucleotides of 25 to 31 bases in length (Biomolecular Analysis Synthesis and Sequencing Laboratory, Florida State University). For deletions involving residues 104-106 and 120-122, mutagenic oligonucleotides were used to delete these positions as well as to simultaneously create point mutations Ala103 ? Gly and Arg119 ? Gly, respectively. […]
All mutant proteins, with the exception of the SYM6 mutant were expressed at levels similar to the WT* protein (i.e. ˜30-100 mg/L). […] Phe, and E280nm (0.1%, 1 cm)=1.31 for all deletion mutations (determined by dithionitrobenzoate titration of cysteine residues).
To quantify the reduced affinity for heparin (a polysulfonated polysaccharide) we determined the affinity for sucrose octasulfate, a structural mimic of a heparin dimer, by isothermal titration calorimetry. […]

Data set [2] is described as follows: Isothermal equilibrium denaturation in guanidine HCl monitored by CD. Format: physicochemical. The settings on record: relative to SYM6ΔΔ. Here is the method:
Protein samples were equilibrated overnight in 20 mM N-2-(acetamido)iminodiacetic acid (ADA), 100 mM NaCl pH 6.60 at 298K in 0.1M increments of guanidine HCl (GuHCl). All samples contained a final protein concentration of 25 μM. An Aviv model 202 circular dichroism spectrometer (Proterion Corp., Piscataway, N.J.) equipped with a Peltier controlled temperature unit maintaining a constant temperature of 298K was used for all spectroscopic measurements. For each sample, triplicate scans were collected and averaged. Buffer traces were collected, averaged and subtracted from the sample traces. Data smoothing was performed prior to buffer subtraction using a 5-point Fourier transform filter. The denaturation process was monitored by observing the change in CD signal at 227 nm with increasing GuHCl, according to published references. The general purpose non-linear least squares fitting program DataFit™ (Oakdale Engineering, Oakdale Pa.) was used to fit the change in molar ellipticity at 227 nm versus GuHCl concentration to a six parameter two state model: F=(F0N+SN[D]+F0D+SD[D])e^−((ΔG0+m[D]/RT)/1+e^−((ΔG0+m[D]/RT) (1) where [D] is the denaturant concentration, F0N and F0D are the 0M denaturant molar ellipticity intercepts for the native and denatured states, respectively, and SN and SD are the slopes of the native and denatured state baselines, respectively. ΔG0 and m describe the linear function of the unfolding free energy versus denaturant concentration at 298K. The effect of a given mutation upon the stability of the protein (ΔΔG) was calculated by taking the difference between the Cm values for WT* and mutant and multiplying by the average of the m values, as described by Pace and Scholtz (Measuring the conformational stability of a protein; in Protein Structure: A Practical Approach, Creighton, T. E., ed., pp. 299-321, Oxford University Press, Oxford; 1997): ΔΔG=(CmWT*−Cm mutant)(mWT*+mmutant)/2 (2) Folding Kinetics Measurements.
Previous studies by others of the stability and folding of FGF-1 have been performed by monitoring the fluorescence signal of the single buried Trp 107 in FGF-1. This Trp in the WT* structure is somewhat unusual in that it is more highly quenched in the native state than the denatured. […] We have previously compared the fluorescence and CD spectroscopic response of FGF-1 to denaturation by GuHCl and shown essentially indistinguishable results for both his-tagged and non-his-tagged forms. A tabulation of the mutant thermodynamic data from isothermal equilibrium denaturation, monitored by CD signal, is listed in Table II. The data in this table for the SYM6 mutant are from our previously published isothermal equilibrium denaturation study monitored by fluorescence.

Data set [3] in a line: Precipitation during purification or concentration. Format: physicochemical. Here is the method:
All mutant proteins, with the exception of the SYM6 mutant were expressed at levels similar to the WT* protein (i.e. ˜30-100 mg/L). […] The His-tag provides the WT* and mutant FGF-1 proteins with nickel binding affinity, and FGF-1 naturally has a heparin binding site. These two affinity sites were employed in a purification scheme utilizing sequential nickel-NTA and heparin Sepharose® affinity chromatography resins. However, mutant forms of FGF-1 involving the Δ120-122 mutation lacked heparin-binding affinity. These mutants were, therefore, purified by the substitution of gel filtration chromatography for the heparin Sepharose® affinity chromatography. The extinction coefficients used for concentration determination were E280nm (0.1%, 1 cm)=1.26 for WT* and other mutations not involving deletions or the Leu44 ? […] Phe, and E280nm (0.1%, 1 cm)=1.31 for all deletion mutations (determined by dithionitrobenzoate titration of cysteine residues).
Due to the relatively weak differential CD signal of native and denatured FGF-1, the folding kinetics study required relatively high protein concentrations (>5 mg/ml). […] The SYM6Δ120-122 mutant is substantially destabilized relative to the WT* protein (see Table II) and presents a relatively short “folding arm” in the Chevron plot, for this reason there is greater uncertainty associated with the folding kinetics determined for this mutant. […]

For data set [4] the following is noted: monitored by fluorescence signal, cited from earlier work.

“Also recorded” adds a separate entry of the source.

B1: WTΔ120-122: Wild type FGF-1 polypeptide with a deletion at positions 120-122, SEQ ID NO: 3 (protein)
chain: FNLPPGNYKKPKLLYCSNGGHFLRILPDGTVDGTRDRSDQHIQLQLSAESVGEVYIKSTETGQYLAMDTDGLLYGSQTPNEECLFLERLEENHYNTYISKKHAEKNWFVGLKKNGSCKGTHYGQKAILFLPLPVSSD
modifications: Human FGF-1 mutant WTD120-122
Consider B1, for which the “mitogenicity, predicted” value with NIH 3T3 fibroblasts was “increased biological activity with regard to mitogenicity”. Also, in data set [1], the “heparin binding affinity, predicted” value is on record as “decreased heparin binding affinity”.

B2: SYM6: FGF-1 core mutant Leu44→Phe/Met67→Ile/Leu73→Val/Val109→Leu/Leu111→Ile/Cys117→Val (protein, UniProt P05230 16-155, looked up, variant L44F M67I L73V V109L L111I C117V)
Fibroblast growth factor 1: FNLPPGNYKKPKLLYCSNGGHFLRILPDGTVDGTRDRSDQHIQFQLSAESVGEVYIKSTETGQYLAIDTDGLVYGSQTPNEECLFLERLEENHYNTYISKKHAEKNWFLGIKKNGSVKRGPRTHYGQKAILFLPLPVSSD
B2: the “effect on stability of the two loop insertions” value in data set [2] is reported as “+25.3 kJ/mol”. Besides, the “precipitation / solubility (in words)” value in data set [3] was “tendency to precipitate during purification; also recorded: typically precipitated during concentration”. Also, in data set [4] (previously reported), the Cm is 0.54 ± 0.01 M, the m-value is 19.3 ± 1.9 kJ/mol M and the ΔG0 is reported as 10.4 ± 0.8 kJ/mol. Also, the ΔΔG in data set [4] (relative to WT*, previously reported data) was 10.2 kJ/mol.

The values above are taken from patent US7790682B1, “Engineered human acidic fibroblast growth factors and associated methods” (The Florida State University Research Foundation, Inc., priority 2003, dated 2010).
